{"source": "paper PMC6156512", "key": {"[1]": {"target": "HPV 33 L1 aa 10–499 (human papillomavirus type 33) (UniProt P06416)", "assay": "cryo-EM structure; purified VLPs at ~3 mg/mL vitrified on Quantifoil holey carbon grids; FEI TF30 at 300 kV; T = 7 particle images boxed manually; pentamers to VLP"}, "[2]": {"target": "HPV 33 L1 aa 10–499 (human papillomavirus type 33) (UniProt P06416)", "assay": "not stated; purified L1 under reducing conditions (Fig. S4); about ~8 nm in diameter; monomers to pentamer"}, "[3]": {"target": "HPV 45 L1 aa 1–513 (human papillomavirus type 45)", "assay": "cryo-EM structure; purified VLPs at ~3 mg/mL vitrified on Quantifoil holey carbon grids; FEI TF30 at 300 kV; T = 7 particle images boxed manually; pentamers to VLP"}, "[4]": {"target": "HPV 45 L1 aa 1–513 (human papillomavirus type 45)", "assay": "not stated; purified L1 under reducing conditions (Fig. S4); about ~8 nm in diameter; monomers to pentamer"}, "[5]": {"target": "HPV 52 L1 aa 15–503 (human papillomavirus type 52)", "assay": "cryo-EM structure; purified VLPs at ~3 mg/mL vitrified on Quantifoil holey carbon grids; FEI TF30 at 300 kV; T = 7 particle images boxed manually; pentamers to VLP"}, "[6]": {"target": "HPV 52 L1 aa 15–503 (human papillomavirus type 52)", "assay": "not stated; purified L1 under reducing conditions (Fig. S4); about ~8 nm in diameter; monomers to pentamer"}, "[7]": {"target": "HPV 58 L1 aa 10–498 (human papillomavirus type 58)", "assay": "cryo-EM structure; purified VLPs at ~3 mg/mL vitrified on Quantifoil holey carbon grids; FEI TF30 at 300 kV; T = 7 particle images boxed manually; pentamers to VLP"}, "[8]": {"target": "HPV 58 L1 aa 10–498 (human papillomavirus type 58)", "assay": "not stated; purified L1 under reducing conditions (Fig. S4); about ~8 nm in diameter; monomers to pentamer"}}}
{"substance": "HPV 33 L1 aa 10–499 (from UniProt P06416 10-499) (domain or fragment)", "values": [{"measurement": "stoichiometry N (pentamers per particle)", "setting": "[1]", "result": 72}, {"measurement": "stoichiometry N", "setting": "[2]", "result": 5}]}
{"substance": "HPV 45 L1 aa 1–513 (natural protein)", "values": [{"measurement": "stoichiometry N (pentamers per particle)", "setting": "[3]", "result": 72}, {"measurement": "stoichiometry N", "setting": "[4]", "result": 5}]}
{"substance": "HPV 52 L1 aa 15–503 (domain or fragment)", "values": [{"measurement": "stoichiometry N (pentamers per particle)", "setting": "[5]", "result": 72}, {"measurement": "stoichiometry N", "setting": "[6]", "result": 5}]}
{"substance": "HPV 58 L1 aa 10–498 (domain or fragment)", "values": [{"measurement": "stoichiometry N (pentamers per particle)", "setting": "[7]", "result": 72}, {"measurement": "stoichiometry N", "setting": "[8]", "result": 5}]}
